These results are taken from PMC6247239 (Protein Science : A Publication of the Protein Society, 2018).

To fix the notation:
B3: FtsZ (natural protein)
chain: MFEPMELTNDAVIKVIGVGGGGGNAVEHMVRERIEGVEFFAVNTDAQALRKTAVGQTIQIGSGITKGLGAGANPEVGRNAADEDRDALRAALEGADMVFIAAGMGGGTGTGAAPVVAEVAKDLGILTVAVVTKPFNFEGKKRMAFAEQGITELSKHVDSLITIPNDKLLKVLGRGISLLDAFGAANDVLKGAVQGIAELITRPGLMNVDFADVRTVMSEMGYAMMGSGVASGEDRAEEAAEMAISSPLLEDIDLSGARGVLVNITAGFDLRLDEFETVGNTIRAFASDNATVVIGTSLDPDMNDELRVTVVATGIGMDKRPEITLVTNKQVQQPVMDRYQQHGMAPLTQEQKPVAKVVNDNAPQTAKEPDYLDIPAFLRKQAD

The target of data set [1] is procaspase-2 phosphorylated at S139 and S164 (human) (UniProt P42575). In words: fluorescence polarisation + native gel or EMSA + SEC + AUC. (Polarisation of emitted light reports the rotation of a fluorescent probe.)
For data set [2], the target named is BECN1 coiled-coil domain (Homo sapiens) (UniProt Q14457). As to conditions: cited from earlier work.
Data set [3] concerns the target PBP2a (Staphylococcus aureus (MRSA)).
The target in data set [4] is Beclin-1 lacking the BARA domain (human).
A further data set has as its target Ras (UniProt P01112).
The target in data set [5] is radical-generating subunit of the class I ribonucleotide reductase of Leeuwenhoekiella blandensis (Leeuwenhoekiella blandensis). The data set can be described thus: multi-detection SEC, GEMMA, DLS.
Data set [6] deals with the molecule itself. In words: SEC + other: dynamic light scattering, HDX-MS, spectroscopy.
The data set “crystal structure” deals with the molecule itself. The data set can be described thus: crystal structure.
A further data set concerns the target T1, FtsA (Escherichia coli, UniProt P0ABH0 1-420).
T1 sequence: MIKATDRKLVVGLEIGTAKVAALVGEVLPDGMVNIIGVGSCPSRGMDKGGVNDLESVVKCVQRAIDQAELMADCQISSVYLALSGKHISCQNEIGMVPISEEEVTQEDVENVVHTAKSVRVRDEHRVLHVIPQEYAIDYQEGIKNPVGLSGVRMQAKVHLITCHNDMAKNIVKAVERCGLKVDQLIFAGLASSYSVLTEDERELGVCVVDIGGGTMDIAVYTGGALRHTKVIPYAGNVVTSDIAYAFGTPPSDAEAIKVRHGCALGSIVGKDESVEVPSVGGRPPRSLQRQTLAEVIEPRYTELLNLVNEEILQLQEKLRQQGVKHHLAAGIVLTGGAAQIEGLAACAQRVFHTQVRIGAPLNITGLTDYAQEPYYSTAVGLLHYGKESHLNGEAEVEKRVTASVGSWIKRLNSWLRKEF
The data set can be described thus: co-sedimentation.

The data set “FtsZ” deals with B3. In words: co-sedimentation.

Chain of procaspase-2 phosphorylated at S139 and S164 (human) (P42575 whole entry, the tested form may be a part): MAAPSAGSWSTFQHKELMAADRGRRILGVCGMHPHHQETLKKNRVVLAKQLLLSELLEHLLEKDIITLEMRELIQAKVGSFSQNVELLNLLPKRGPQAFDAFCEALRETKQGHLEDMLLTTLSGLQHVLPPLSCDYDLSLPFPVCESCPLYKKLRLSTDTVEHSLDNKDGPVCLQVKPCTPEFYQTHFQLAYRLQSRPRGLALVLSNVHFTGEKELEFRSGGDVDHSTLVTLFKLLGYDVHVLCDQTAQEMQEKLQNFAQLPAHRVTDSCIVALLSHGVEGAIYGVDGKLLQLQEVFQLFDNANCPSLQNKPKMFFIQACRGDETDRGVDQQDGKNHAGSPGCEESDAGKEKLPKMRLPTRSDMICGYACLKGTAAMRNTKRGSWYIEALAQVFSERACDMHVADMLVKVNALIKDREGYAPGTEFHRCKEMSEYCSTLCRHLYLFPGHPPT

In the case of “14-3-3 protein (from UniProt P63104 1-245) (natural protein)”, in data set [1], the stoichiometry N (usually the number of molecules, sites or subunits per partner or assembly) is 1.

Consider “BECN1 coiled-coil domain (from UniProt Q14457)”, for which the Kd (in general, the constant that tells how readily two partners part at equilibrium) in [2] is 48 µM.

Molecule BLIP-II N50A:Y113H (natural protein) yielded a Kd in data set [3] of 0.05 µM.

On to “Beclin-1 lacking the BARA domain (domain or fragment)”, for which the fold weaker homodimer KD than the full-length protein in data set [4] was determined as 3.5 fold.

In the case of “Ras (from UniProt P01112 1-189) (natural protein)”, the percent of the Ras population forming dimers with Ras is less than 10%.

For “radical-generating subunit of the class I ribonucleotide reductase of Leeuwenhoekiella blandensis (enzyme)”, the stoichiometry N in [5] was 4.

B1: human glutathione transferase M1a-1a (enzyme)
chain: MPMILGYWDIRGLAHAIRLLLEYTDSSYEEKKYTMGDAPDYDRSQWLNEKFKLGLDFPNLPYLIDGAHKITQSNAILCYIARKHNLCGETEEEKIRVDILENQTMDNHMQLGMICYNPEFEKLKPKYLEELPEKLKLYSEFLGKRPWFAGNKITFVDFLVYDVLDLHRIFEPKCLDAFPNLKDFISRFEGLEKISAYMKSSRFLPRPVFSKMAVWGNK
Turning to B1, in data set [6], the “stoichiometry N” value was found to be 2.

B2: SNX16 PX-CC unit (domain or fragment)
chain: DRPSTPTILGYEVMEERAKFTVYKILVKKTPEESWVVFRRYTDFSRLNDKLKEMFPGFRLALPPKRWFKDNYNADFLEDRQLGLQAFLQNLVAHKDIANCLAVREFLCLDDPPGPFDSLEESRAFCETLEETNYRLQKELLEKQKEMESLKKLLSEKQLHIDTLENRIRTLSLEPEESLDVSETEGEQILKVESSALEVDQDVLDEESRADNKPCLSFSEPENAVSEIEVAEVAYDAEED
Regarding B2, the “stoichiometry N” value in the data set “crystal structure” turned out to be 2.

Regarding B3, the binding result with FtsA is listed as “binds”.

B4: MinC (natural protein)
chain: MSNTPIELKGSSFTLSVVHLHEAEPKVIHQALEDKIAQAPAFLKHAPVVLNVSALEDPVNWSAMHKAVSATGLRVIGVSGCKDAQLKAEIEKMGLPILTEGKEKAPRPAPTPQAPAQNTTPVTKTRLIDTPVRSGQRIYAPQCDLIVTSHVSAGAELIADGNIHVYGMMRGRALAGASGDRETQIFCTNLMAELVSIAGEYWLSDQIPAEFYGKAARLQLVENALTVQPLN
Turning to B4, the binding result with FtsZ is “binds”.
